This note sets out measurements from patent US20250076311A1 (Chugai, published 2025).

Assay in all cases: SPR Biacore, antibody captured, FcgR analyte
Background: In SPR one partner is held on a chip, and binding of the other changes the refractive index at the surface.

In test [1] the target is T1, cynomolgus monkey FcγRIIa2 extracellular domain with C-terminal His-tag (cynomolgus monkey).
T1 construct: also called cyno FcgRIIa2; cynoFcγRIIa2; not shown: His-tag added to C-terminus
T1 chain: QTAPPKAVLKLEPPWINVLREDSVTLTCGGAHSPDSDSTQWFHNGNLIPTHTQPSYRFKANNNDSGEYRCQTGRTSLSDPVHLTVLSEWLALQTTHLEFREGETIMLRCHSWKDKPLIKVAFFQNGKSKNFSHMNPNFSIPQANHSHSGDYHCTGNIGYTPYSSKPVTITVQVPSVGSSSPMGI

Test [2] concerns the target T2, cynomolgus monkey FcγRIIa3 extracellular domain with C-terminal His-tag (cynomolgus monkey).
T2 construct: also called cyno FcgRIIa3; cynoFcγRIIa3; not shown: His-tag added to C-terminus
T2 chain: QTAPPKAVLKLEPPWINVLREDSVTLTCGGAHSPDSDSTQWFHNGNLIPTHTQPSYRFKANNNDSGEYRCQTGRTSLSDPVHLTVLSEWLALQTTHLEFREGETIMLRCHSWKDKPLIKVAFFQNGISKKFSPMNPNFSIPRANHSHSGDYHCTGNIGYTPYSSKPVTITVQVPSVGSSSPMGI

The target in test [3] is T3, cynomolgus monkey FcγRIIIaS extracellular domain with C-terminal His-tag (cynomolgus monkey, UniProt A3RFZ7 21-206 (rhesus entry)).
T3 construct: also called cyno FcgRIIIaS; cynoFcγRIIIaS; not shown: His-tag added to C-terminus

The target in test [4] is T4, human FcγRIIaH extracellular domain with C-terminal His-tag (human, UniProt P12318 34-217).
T4 construct: also called human FcgRIIaH; FcγRIIa (type H); not shown: His-tag added to C-terminus
T4 sequence: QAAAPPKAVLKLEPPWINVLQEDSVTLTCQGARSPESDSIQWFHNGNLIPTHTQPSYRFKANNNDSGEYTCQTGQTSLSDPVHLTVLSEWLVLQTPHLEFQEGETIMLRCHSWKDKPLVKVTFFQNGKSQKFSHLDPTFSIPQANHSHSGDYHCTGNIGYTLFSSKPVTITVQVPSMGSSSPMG

Test [5] concerns the target T5, human FcγRIIaR extracellular domain with C-terminal His-tag (human, UniProt P12318 34-217).
T5 construct: also called human FcgRIIaR; FcγRIIa (type R); not shown: His-tag added to C-terminus
T5 chain: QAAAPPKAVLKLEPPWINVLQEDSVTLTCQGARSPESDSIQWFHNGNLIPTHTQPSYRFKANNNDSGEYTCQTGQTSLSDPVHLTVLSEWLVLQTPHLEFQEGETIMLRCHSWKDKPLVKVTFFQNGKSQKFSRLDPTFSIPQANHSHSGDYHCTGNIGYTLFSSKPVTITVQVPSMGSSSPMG

The target in test [6] is T6, human FcγRIIb extracellular domain with C-terminal His-tag (human, UniProt P31994 43-217).
T6 construct: also called human FcgRIIb; not shown: His-tag added to C-terminus
T6 sequence: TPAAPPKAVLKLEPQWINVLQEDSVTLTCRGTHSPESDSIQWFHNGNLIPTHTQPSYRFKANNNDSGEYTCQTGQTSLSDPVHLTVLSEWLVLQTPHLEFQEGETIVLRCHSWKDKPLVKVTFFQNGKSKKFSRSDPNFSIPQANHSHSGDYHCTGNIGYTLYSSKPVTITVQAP

The target of test [7] is T7, human FcγRIIIaV extracellular domain with C-terminal His-tag (human, UniProt P08637 17-208).
T7 construct: also called human FcgRIIIaV; not shown: His-tag added to C-terminus
T7 sequence (P08637 17-208 F176V): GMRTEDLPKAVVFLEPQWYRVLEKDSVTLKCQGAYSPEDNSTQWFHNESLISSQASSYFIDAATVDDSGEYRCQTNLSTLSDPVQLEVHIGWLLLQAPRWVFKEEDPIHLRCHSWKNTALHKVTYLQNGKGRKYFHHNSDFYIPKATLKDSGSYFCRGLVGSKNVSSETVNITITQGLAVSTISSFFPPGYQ

B1: M103205H795-MY172/M103202L889-SK1 (antibody, human IgG1, kappa, name in EU numbering)
heavy: QVTLKESGPVLVKPTETLTLTCTVSGIDLSHDDISWVRQAPGKGLEWVGIISYAGSTYYASWAKGRLTISKDTSKNQVVLTMTNMDPVDTATYYCARGVPAYSHGGDLWGQGTLVTVSSASTKGPSVFPLAPSSKSTSGGTAALGCLVKDYFPEPVTVSWNSGALTSGVHTFPAVLQSSGLYSLSSVVTVPSSSLGTQTYICNVNHKPSNTKVDKKVEPKSCDKTHTCPPCPAPELLNGPSVFLFPPKPKDTLMISRTPEVTCVVVDVSEEDPEVKFNWYVDGVEVHNAKTKPREEQYNSTYRVVSVLTVLHQDWLNGKEYKCKVSNKALPAPIEKTISKAKGQPREPQVYTLPPSREEMTKNQVSLTCLVKGFYPSDIAVEWESNGQPENNYKTTPGVLDSDGSFFLYSKLTVDKSRWQQGNVFSCSVMHEALHNHYTQKSLSLSP
light: DIVMTQSPATLSLSPGERATLSCTSSQSVYHANWLSWFQQKPGQPPKLLIYWASTLAYGVPSRFSGSGSGTDFTLTISSLQPEDAATYYCAGGYGGGRYAFGQGTKVEIKRTVAAPSVFIFPPSDEQLKSGTASVVCLLNNFYPREAKVQWKVDNALQSGNSQESVTEQDSKDSTYSLSSTLTLSKADYEKHKVYACEVTHQGLSSPVTKSFNRGEC
notes: EU numbering
Usually Kd stands for the concentration at which binding is half-saturated. On to B1, for which the “KD fold (SG1 = 1)” value in test [1] was found to be 1.8 fold; in test [3] it was 0.17 fold. Further, the dissociation constant (Kd) in test [1] is 2800 nM; in test [2] it was 1100 nM; in test [3], 3500 nM; in test [4] it was 1700 nM.

B2: M103205H795-MY177/M103202L889-SK1 (antibody, human IgG1, kappa, name in EU numbering)
heavy: QVTLKESGPVLVKPTETLTLTCTVSGIDLSHDDISWVRQAPGKGLEWVGIISYAGSTYYASWAKGRLTISKDTSKNQVVLTMTNMDPVDTATYYCARGVPAYSHGGDLWGQGTLVTVSSASTKGPSVFPLAPSSKSTSGGTAALGCLVKDYFPEPVTVSWNSGALTSGVHTFPAVLQSSGLYSLSSVVTVPSSSLGTQTYICNVNHKPSNTKVDKKVEPKSCDKTHTCPPCPAPELLNGPSVFLFPPKPKDTLMISRTPEVTCVVVDVSEEDPEVKFNWYVDGVEVHNAKTKPREEQYNSTYRVVSVLTVLHQDWLNGKEYKCKVSNKALPAPIEKTISKAKGQPREPQVYTLPPSREEMTKNQVSLTCLVKGFYPSDIAVEWESNGQPENNYKTTPNVLDSDGSFFLYSKLTVDKSRWQQGNVFSCSVMHEALHNHYTQKSLSLSP
light: DIVMTQSPATLSLSPGERATLSCTSSQSVYHANWLSWFQQKPGQPPKLLIYWASTLAYGVPSRFSGSGSGTDFTLTISSLQPEDAATYYCAGGYGGGRYAFGQGTKVEIKRTVAAPSVFIFPPSDEQLKSGTASVVCLLNNFYPREAKVQWKVDNALQSGNSQESVTEQDSKDSTYSLSSTLTLSKADYEKHKVYACEVTHQGLSSPVTKSFNRGEC
notes: EU numbering
For the molecule B2, the entries for the “KD fold (SG1 = 1)” value in test [3] and in test [5] were 0.12 fold and 0.1 fold, respectively. For the same molecule, the dissociation constant Kd in test [3] was determined as 2900 nM; in test [4] it was 1000 nM; in test [5], 2000 nM; in test [6] it was 1100 nM.

B3: M103205H795-MY210/M103202L889-SK1 (antibody, human IgG1, kappa, name in EU numbering)
heavy: QVTLKESGPVLVKPTETLTLTCTVSGIDLSHDDISWVRQAPGKGLEWVGIISYAGSTYYASWAKGRLTISKDTSKNQVVLTMTNMDPVDTATYYCARGVPAYSHGGDLWGQGTLVTVSSASTKGPSVFPLAPSSKSTSGGTAALGCLVKDYFPEPVTVSWNSGALTSGVHTFPAVLQSSGLYSLSSVVTVPSSSLGTQTYICNVNHKPSNTKVDKKVEPKSCDKTHTCPPCPAPELLNGPSVFLFPPKPKDTLMISRTPEVTCVVVDVSDEDPEVKFNWYVDGVEVHNAKTKPREEQYNSTYRVVSVLTVLHQDWLNGKEYKCKVSNTALPKPIEKTISKAKGQPREPQVYTLPPSREEMTKNQVSLTCLVKGFYPSDIAVEWESNGQPENNYKTTPPVLDSDGSFFLYSKLTVDKSRWQQGNVFSCSVMHEALHNHYTQKSLSLSP
light: DIVMTQSPATLSLSPGERATLSCTSSQSVYHANWLSWFQQKPGQPPKLLIYWASTLAYGVPSRFSGSGSGTDFTLTISSLQPEDAATYYCAGGYGGGRYAFGQGTKVEIKRTVAAPSVFIFPPSDEQLKSGTASVVCLLNNFYPREAKVQWKVDNALQSGNSQESVTEQDSKDSTYSLSSTLTLSKADYEKHKVYACEVTHQGLSSPVTKSFNRGEC
notes: substitutions in EU numbering, introduced into M103205H795-SG1
As for B3, the “KD fold (SG1 = 1)” value in test [1] amounted to 6.1 fold; in test [3], 0.15 fold; in test [4] it was 0.8 fold; in test [7], 0.03 fold.

B4: M103205H795-MY178/M103202L889-SK1 (antibody, human IgG1, kappa, name in EU numbering)
heavy: QVTLKESGPVLVKPTETLTLTCTVSGIDLSHDDISWVRQAPGKGLEWVGIISYAGSTYYASWAKGRLTISKDTSKNQVVLTMTNMDPVDTATYYCARGVPAYSHGGDLWGQGTLVTVSSASTKGPSVFPLAPSSKSTSGGTAALGCLVKDYFPEPVTVSWNSGALTSGVHTFPAVLQSSGLYSLSSVVTVPSSSLGTQTYICNVNHKPSNTKVDKKVEPKSCDKTHTCPPCPAPELLNGPSVFLFPPKPKDTLMISRTPEVTCVVVDVSEEDPEVKFNWYVDGVEVHNAKTKPREEQYNSTYRVVSVLTVLHQDWLNGKEYKCKVSNKALPAPIEKTISKAKGQPREPQVYTLPPSREEMTKNQVSLTCLVKGFYPSDIAVEWESNGQPENNYKTTPQVLDSDGSFFLYSKLTVDKSRWQQGNVFSCSVMHEALHNHYTQKSLSLSP
light: DIVMTQSPATLSLSPGERATLSCTSSQSVYHANWLSWFQQKPGQPPKLLIYWASTLAYGVPSRFSGSGSGTDFTLTISSLQPEDAATYYCAGGYGGGRYAFGQGTKVEIKRTVAAPSVFIFPPSDEQLKSGTASVVCLLNNFYPREAKVQWKVDNALQSGNSQESVTEQDSKDSTYSLSSTLTLSKADYEKHKVYACEVTHQGLSSPVTKSFNRGEC
notes: EU numbering
On to B4, for which the “KD fold (SG1 = 1)” value was determined as 0.17 fold in test [3], 0.6 fold in test [4] and 0.15 fold in test [7]. Moreover, the Kd came to 3000 nM in test [3] and 1300 nM in test [6].

B5: M103205H795-MY179/M103202L889-SK1 (antibody, human IgG1, kappa, name in EU numbering)
heavy: QVTLKESGPVLVKPTETLTLTCTVSGIDLSHDDISWVRQAPGKGLEWVGIISYAGSTYYASWAKGRLTISKDTSKNQVVLTMTNMDPVDTATYYCARGVPAYSHGGDLWGQGTLVTVSSASTKGPSVFPLAPSSKSTSGGTAALGCLVKDYFPEPVTVSWNSGALTSGVHTFPAVLQSSGLYSLSSVVTVPSSSLGTQTYICNVNHKPSNTKVDKKVEPKSCDKTHTCPPCPAPELLNGPSVFLFPPKPKDTLMISRTPEVTCVVVDVSEEDPEVKFNWYVDGVEVHNAKTKPREEQYNSTYRVVSVLTVLHQDWLNGKEYKCKVSNKALPAPIEKTISKAKGQPREPQVYTLPPSREEMTKNQVSLTCLVKGFYPSDIAVEWESNGQPENNYKTTPRVLDSDGSFFLYSKLTVDKSRWQQGNVFSCSVMHEALHNHYTQKSLSLSP
light: DIVMTQSPATLSLSPGERATLSCTSSQSVYHANWLSWFQQKPGQPPKLLIYWASTLAYGVPSRFSGSGSGTDFTLTISSLQPEDAATYYCAGGYGGGRYAFGQGTKVEIKRTVAAPSVFIFPPSDEQLKSGTASVVCLLNNFYPREAKVQWKVDNALQSGNSQESVTEQDSKDSTYSLSSTLTLSKADYEKHKVYACEVTHQGLSSPVTKSFNRGEC
notes: EU numbering
As to B5, the “KD fold (SG1 = 1)” value in test [1] stood at 2.8 fold; in test [3] it was 0.13 fold. Also, the figures for the Kd in test [3], in test [4] and in test [6] were 2700 nM, 1100 nM and 1200 nM, respectively.
